Laboratory results: patent US20160060325A1 (POMONA RICERCA S R L, published 2016)

Assays:
[1] = target: hemagglutinin (HA) of influenza A virus H1N1, strain A/PR/8/34 (influenza A virus H1N1, strain A/PR/8/34, UniProt P03452 18-565); test: cell-based or functional assay
[2] = target: hemagglutinin (HA) of influenza A virus H1N1, strain A/Malaya/302/54 (influenza A virus H1N1, strain …); test: cell-based or functional assay
[3] = target: hemagglutinin (HA) of influenza A virus H3N2, strain A/Victoria/3/75 (influenza A virus H3N2, strain …, UniProt P03435 17-567); test: cell-based or functional assay
[4] = target: hemagglutinin (HA) of influenza A virus H3N2, strain A/PC/1/73 (influenza A virus H3N2, strain A/PC/1/73, UniProt Q1PUD9 17-566); test: cell-based or functional assay
[5] = target: HA2 subunit of hemagglutinin (individual subunit, Western blot) (influenza A virus H1N1, strain A/PR/8/34, UniProt P03452 344-565); test: Western blot
Sequence of HA2 subunit of hemagglutinin (individual subunit, Western blot) (P03452 344-565 limits assumed): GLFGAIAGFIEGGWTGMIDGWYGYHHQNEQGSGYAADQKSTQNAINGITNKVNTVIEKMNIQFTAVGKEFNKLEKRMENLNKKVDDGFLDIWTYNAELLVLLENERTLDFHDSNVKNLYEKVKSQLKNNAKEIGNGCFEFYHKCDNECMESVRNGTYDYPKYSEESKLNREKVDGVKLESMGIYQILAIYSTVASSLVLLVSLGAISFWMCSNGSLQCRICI

Sequence of hemagglutinin (HA) of influenza A virus H3N2, strain A/Victoria/3/75 (P03435 17-567 limits assumed): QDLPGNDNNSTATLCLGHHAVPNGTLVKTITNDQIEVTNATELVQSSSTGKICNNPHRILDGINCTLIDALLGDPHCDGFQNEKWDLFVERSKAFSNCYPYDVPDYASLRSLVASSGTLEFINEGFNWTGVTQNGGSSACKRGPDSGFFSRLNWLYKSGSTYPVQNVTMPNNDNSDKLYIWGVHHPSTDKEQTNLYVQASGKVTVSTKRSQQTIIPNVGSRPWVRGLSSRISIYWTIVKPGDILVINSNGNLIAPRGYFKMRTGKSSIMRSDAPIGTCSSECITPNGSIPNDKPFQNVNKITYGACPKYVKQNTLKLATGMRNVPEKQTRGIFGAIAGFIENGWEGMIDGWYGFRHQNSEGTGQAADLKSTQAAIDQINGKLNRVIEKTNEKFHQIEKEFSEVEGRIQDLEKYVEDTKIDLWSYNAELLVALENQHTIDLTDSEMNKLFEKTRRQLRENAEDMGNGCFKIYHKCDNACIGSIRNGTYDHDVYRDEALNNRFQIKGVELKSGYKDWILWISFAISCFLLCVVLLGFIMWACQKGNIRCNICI
Sequence of hemagglutinin (HA) of influenza A virus H3N2, strain A/PC/1/73 (Q1PUD9 17-566): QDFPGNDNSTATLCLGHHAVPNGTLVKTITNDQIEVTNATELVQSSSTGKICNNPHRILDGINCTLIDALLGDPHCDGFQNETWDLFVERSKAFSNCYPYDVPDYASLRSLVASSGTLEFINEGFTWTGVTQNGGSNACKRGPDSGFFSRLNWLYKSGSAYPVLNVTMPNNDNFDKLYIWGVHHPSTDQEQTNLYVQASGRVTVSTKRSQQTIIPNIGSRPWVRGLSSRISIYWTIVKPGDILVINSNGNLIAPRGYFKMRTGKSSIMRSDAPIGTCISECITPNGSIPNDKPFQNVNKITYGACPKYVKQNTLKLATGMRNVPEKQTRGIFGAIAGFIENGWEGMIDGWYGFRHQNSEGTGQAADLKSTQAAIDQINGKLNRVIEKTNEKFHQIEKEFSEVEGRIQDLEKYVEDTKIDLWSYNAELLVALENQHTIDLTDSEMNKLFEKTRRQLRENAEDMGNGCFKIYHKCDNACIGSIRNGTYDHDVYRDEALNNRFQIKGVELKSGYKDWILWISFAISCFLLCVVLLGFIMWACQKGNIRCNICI
Sequence of hemagglutinin (HA) of influenza A virus H1N1, strain A/PR/8/34 (P03452 18-565 limits assumed): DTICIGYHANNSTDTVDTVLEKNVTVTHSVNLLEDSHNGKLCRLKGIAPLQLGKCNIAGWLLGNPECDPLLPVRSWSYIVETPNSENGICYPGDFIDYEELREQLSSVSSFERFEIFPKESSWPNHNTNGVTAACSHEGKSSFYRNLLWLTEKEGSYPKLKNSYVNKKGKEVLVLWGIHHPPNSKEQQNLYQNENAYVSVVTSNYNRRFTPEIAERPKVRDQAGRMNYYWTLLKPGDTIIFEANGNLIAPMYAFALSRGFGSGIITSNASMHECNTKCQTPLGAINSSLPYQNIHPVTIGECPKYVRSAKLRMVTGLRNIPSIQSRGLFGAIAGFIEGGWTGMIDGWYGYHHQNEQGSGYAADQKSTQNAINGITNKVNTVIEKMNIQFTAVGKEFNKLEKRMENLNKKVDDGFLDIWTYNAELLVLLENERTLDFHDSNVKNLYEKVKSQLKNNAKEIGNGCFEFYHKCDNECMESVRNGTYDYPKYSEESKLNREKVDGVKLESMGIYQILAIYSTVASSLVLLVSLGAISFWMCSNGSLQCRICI

B1: Fab28 (monoclonal antibody produced by clone INF28, human Fab fragment) (Fab, V domains shown)
VH: LEESGGGVVQPGRSLRLSCAASGFPFSSYGMHWVRQAPGKGLEWVAGVSYDGSYKYYADSVKGRFTISRDSSKSTLYLQMNSLRPEDTAVYYCARPSAIFGIYIILNGLDVWGQGTTVTVSS
VL: ELTQSPSSVSASVGDRVTITCRATQGISSWLAWYQQKPGKPPKLLIFGASSLQSGVPSRFSGSGSGTDFTLTISSLQPEDFATYFCQQAHSFPLTFGGGTKVEIK
**Q.** Which results are given for B1?
**A.** IC50, neutralization by plaque reduction assay, H1N1 A/PR/8/34 [1]: < 2.5 µg/mL; IC50, neutralization by plaque reduction assay, H1N1 A/Malaya/302/54 [2]: < 2.5 µg/mL; IC50, neutralization by plaque reduction assay, H3N2 A/Victoria/3/75 [3]: ~20 µg/mL; IC50, neutralization by plaque reduction assay, H3N2 A/Port Chalmers/1/73 [4]: ~20 µg/mL; binding result [5]: no binding
